Measured values as given in PMC11393876 (Cancers, 2024).

Key:
Conditions in all cases: both partners purified
[1] = biological target: T1, Biotin-hPD-1-mIgG Fc (human, UniProt Q15116, biotin); test: ELISA; competitive ELISA; human PD-L1 coated; Biotin-hPD-1-mIgG Fc at 0.025 μg/mL as binder; serial dilutions of P1801 from 0.5 μg/mL as competitor; 25 °C, 2 h
T1 construct: PD-1, human; also called hPD-1-mFc; source: PharmaEssentia, purified fusion protein

[2] = biological target: T1, Biotin-hPD-1-mIgG Fc; test: ELISA; competitive ELISA; human PD-L2 coated; Biotin-hPD-1-mIgG Fc at 0.025 μg/mL as binder; serial dilutions of P1801 from 0.5 μg/mL as competitor; 25 °C, 2 h
[3] = biological target: T2, human CTLA-4 (Homo sapiens, UniProt P16410); test: ELISA; direct binding ELISA; antigens coated overnight, blocked with 1% BSA 2 h; P1801 incubated at 25 °C for 1 h; detected with peroxidase goat anti-hIgG Fc
T2 construct: CTLA-4, human; source: bought: Sino Biological (11159-H08H)

[4] = biological target: T3, human CD28 (Homo sapiens, UniProt P10747); test: as above
T3 construct: CD28, human; source: bought: Sino Biological (11524-HCCH)

[5] = biological target: T4, human PD-L2 (human, UniProt Q9BQ51); test: as above
T4 construct: PD-L2, human; source: bought: Sino Biological (10292-H08H)

[6] = biological target: T5, mouse PD-1 (Mus musculus, UniProt Q02242); test: as above
T5 construct: PD-1, mouse; source: bought: Sino Biological (50124-M08H)

[7] = biological target: T6, human PD-1 (Homo sapiens, UniProt Q15116); test: as above
T6 construct: programmed cell death 1 (PD-1), human; also called PD-1/His antigen; human PD-1 proteins; source: bought: Sino Biological (HPLC-10377-H08H) for the ELISA

[8] = biological target: T7, cynomolgus PD-1 (Macaca fascicularis (cynomolgus), UniProt B0LAJ3); test: as above
T7 construct: PD-1, cynomolgus monkey, GenBank NP_001271065.1; source: bought: Sino Biological (90311-C08H)

[9] = biological target: T8, human PD-L1 (human, UniProt Q9NZQ7); test: as above
T8 construct: programmed death-ligand 1 (PD-L1), human; also called programmed death-ligand 1; source: bought: Sino Biological (10084-H08H)

[10] = biological target: T6, human PD-1; test: SPR; P1801 (2 µg/mL) captured on the surface; human PD-1 proteins injected; 25 °C; HBS-EP (10 mM HEPES, 150 mM NaCl, 3 mM EDTA, 0.05% Tween 20, pH 7.4)

T6 sequence (Q15116 25-170): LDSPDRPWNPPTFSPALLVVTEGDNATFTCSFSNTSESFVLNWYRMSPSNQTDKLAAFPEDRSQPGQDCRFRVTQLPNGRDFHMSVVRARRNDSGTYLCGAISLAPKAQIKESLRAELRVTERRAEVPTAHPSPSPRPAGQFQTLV
T1 sequence (Q15116 25-170): as above
T2 sequence (P16410 36-161): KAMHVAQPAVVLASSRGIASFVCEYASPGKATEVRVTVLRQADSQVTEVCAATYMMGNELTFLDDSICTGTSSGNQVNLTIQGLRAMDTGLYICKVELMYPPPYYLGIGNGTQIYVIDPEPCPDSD
T5 sequence (Q02242 25-169): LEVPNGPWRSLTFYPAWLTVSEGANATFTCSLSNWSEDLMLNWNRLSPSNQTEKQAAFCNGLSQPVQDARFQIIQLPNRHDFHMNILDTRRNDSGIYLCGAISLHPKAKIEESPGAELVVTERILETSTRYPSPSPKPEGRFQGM
T3 sequence (P10747 19-152): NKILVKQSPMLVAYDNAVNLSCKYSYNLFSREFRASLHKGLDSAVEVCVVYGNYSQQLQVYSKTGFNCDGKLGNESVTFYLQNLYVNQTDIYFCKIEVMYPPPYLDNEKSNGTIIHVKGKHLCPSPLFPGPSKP
T8 sequence (Q9NZQ7 19-238): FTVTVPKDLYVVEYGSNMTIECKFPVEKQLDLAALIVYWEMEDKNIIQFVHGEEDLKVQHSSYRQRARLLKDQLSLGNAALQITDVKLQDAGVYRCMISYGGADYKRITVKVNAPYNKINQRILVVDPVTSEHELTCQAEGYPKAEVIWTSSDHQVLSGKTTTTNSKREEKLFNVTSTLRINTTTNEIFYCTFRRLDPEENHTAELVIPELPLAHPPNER
T4 sequence (Q9BQ51 20-220): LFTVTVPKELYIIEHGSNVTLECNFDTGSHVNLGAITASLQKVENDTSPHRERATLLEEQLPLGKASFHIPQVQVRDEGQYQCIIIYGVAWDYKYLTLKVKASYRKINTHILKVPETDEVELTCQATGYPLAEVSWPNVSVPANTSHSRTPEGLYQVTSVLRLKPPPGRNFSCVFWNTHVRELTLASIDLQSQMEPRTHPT

IC50 [1]: 0.57 nM | IC50 [2]: 0.9 nM | binding result [3]: no binding | binding result [4]: no binding | binding result [5]: no binding | binding result [6]: no binding | EC50 [7]: 0.57 nM | EC50 [8]: 0.44 nM | binding result [9]: no binding | Kd [10]: 2.5 nM
B1: P1801 (antibody, V domains shown)
VH: EVQLVESGGGLVQPGGSLRLSCAASGFTFSSYDMSWVRQAPGKGLEWVATITGGGSYTYYPDSVKGRFTISRDNAKNSLYLQMNSLRAEDTAVYYCASPYLNYFDYWGQGTLVTVSS
VL: EIVLTQSPATLSLSPGERATLSCRASQSISNNLHWYQQKPGQAPRLLIYYASQSISGIPARFSGSGSGTDFTLTISSLEPEDFAVYYCQQSNSWPLTFGQGTKLEIK
notes: 464 residues; mouse CDR1-3 in a human IgG4 framework with the S228P mutation; kappa light chain, 234 residues; mouse CDRs in a human framework; IgG4 kappa, S228P; humanized from murine clone PD-1RB-M59; The printed lengths (464 and 234 residues) may include signal peptides; Molecular weight 146,799 Da; also called anti-human PD-1 IgG4 humanized monoclonal antibody; source: CHO cell expression …
